This is an account of results in publication PMC5374532, “Rational mutagenesis by engineering disulphide bonds improves Kluyveromyces lactis beta-galactosidase for high-temperature industrial applications” (Scientific Reports, 2017).

Substrate in the data set: O=[N+]([O-])c1ccc(O[C@@H]2O[C@H](CO)[C@H](O)[C@H](O)[C@H]2O)cc1
As to the kind of experiment: purified protein. The conditions noted are these: Z buffer (100 mM Na2HPO4, 40 mM NaH2PO4, 10 mM KCl, 1.6 mM MgSO4), 30 °C, 0.3 μg/mL enzyme, substrate 0-20 mM. The format is biochemical, Kluyveromyces lactis.

B1: Kl-β-Gal (Kluyveromyces lactis β-galactosidase) (Kluyveromyces lactis NRRL Y-1140) (protein)
chain: SCLIPENLRNPKKVHENRLPTRAYYYDQDIFESLNGPWAFALFDAPLDAPDAKNLDWETAKKWSTISVPSHWELQEDWKYGKPIYTNVQYPIPIDIPNPPTVNPTGVYARTFELDSKSIESFEHRLRFEGVDNCYELYVNGQYVGFNKGSRNGAEFDIQKYVSEGENLVVVKVFKWSDSTYIEDQDQWWLSGIYRDVSLLKLPKKAHIEDVRVTTTFVDSQYQDAELSVKVDVQGSSYDHINFTLYEPEDGSKVYDASSLLNEENGNTTFSTKEFISFSTKKNEETAFKINVKAPEHWTAENPTLYKYQLDLIGSDGSVIQSIKHHVGFRQVELKDGNITVNGKDILFRGVNRHDHHPRFGRAVPLDFVVRDLILMKKFNINAVRNSHYPNHPKVYDLFDKLGFWVIDEADLETHGVQEPFNRHTNLEAEYPDTKNKLYDVNAHYLSDNPEYEVAYLDRASQLVLRDVNHPSIIIWSLGNEACYGRNHKAMYKLIKQLDPTRLVHYEGDLNALSADIFSFMYPTFEIMERWRKNHTDENGKFEKPLILCEYGHAMGNGPGSLKEYQELFYKEKFYQGGFIWEWANHGIEFEDVSTADGKLHKAYAYGGDFKEEVHDGVFIMDGLCNSEHNPTPGLVEYKKVIEPVHIKIAHGSVTITNKHDFITTDHLLFIDKDTGKTIDVPSLKPEESVTIPSDTTYVVAVLKDDAGVLKAGHEIAWGQAELPLKVPDFVTETAEKAAKINDGKRYVSVESSGLHFILDKLLGKIESLKVKGKEISSKFEGSSITFWRPPTNNDEPRDFKNWKKYNIDLMKQNIHGVSVEKGSNGSLAVVTVNSRISPVVFYYGFETVQKYTIFANKINLNTSMKLTGEYQPPDFPRVGYEFWLGDSYESFEWLGRGPGESYPDKKESQRFGLYDSKDVEEFVYDYPQENGNHTDTHFLNIKFEGAGKLSIFQKEKPFNFKISDEYGVDEAAHACDVKRYGRHYLRLDHAIHGVGSEACGPAVLDQYRLKAQDFNFEFDLAFE
notes: full length, N-terminal FLAG tag kept (YEpFLAG vector); monomer 118 kDa; active as dimer and tetramer
For orientation: Km means the concentration of substrate that gives half-maximal velocity. Usually Vmax stands for the rate approached at saturating substrate. For B1, the Km is 2150 ± 520 µM and the Vmax was found to be 71.9 µmol/min/mg.
